Test results published in US20190218268A1 (INDIANA UNIVERSITY RESEARCH AND TECHNOLOGY, published 2019).
Square brackets hold non-standard residues; d marks the D form. Ends that are not written are not given here. 3Pal = N[C@@H](Cc1cccnc1)C(=O)O; 4Pal = N[C@@H](Cc1ccncc1)C(=O)O; Aib = CC(C)(N)C(=O)O

Tests used:
Assay in all cases: cell-based or functional assay
[1] = biological target: glucagon receptor (co-transfected in HEK293 cells with a CRE-luciferase reporter)
human glucagon receptor = human glucagon receptor (human, UniProt P47871 26-477)
human GLP-1 receptor = human GLP-1 receptor (human, UniProt P43220 24-463)

Sequence of human glucagon receptor (P47871 26-477): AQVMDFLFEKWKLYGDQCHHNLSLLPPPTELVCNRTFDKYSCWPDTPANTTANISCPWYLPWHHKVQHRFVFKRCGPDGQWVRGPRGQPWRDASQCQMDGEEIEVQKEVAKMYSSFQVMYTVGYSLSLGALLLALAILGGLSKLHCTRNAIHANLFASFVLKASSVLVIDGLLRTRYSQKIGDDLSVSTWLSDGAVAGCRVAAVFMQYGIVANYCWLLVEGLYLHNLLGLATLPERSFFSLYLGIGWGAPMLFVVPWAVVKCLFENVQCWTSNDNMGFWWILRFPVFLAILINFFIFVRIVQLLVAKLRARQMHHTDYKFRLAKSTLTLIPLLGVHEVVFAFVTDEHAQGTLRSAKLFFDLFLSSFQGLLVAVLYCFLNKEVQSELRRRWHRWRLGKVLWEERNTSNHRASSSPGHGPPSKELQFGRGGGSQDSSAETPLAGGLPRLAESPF

B1: Glucagon analog 10 (peptide)
peptide: HSQGT[4Pal]TSD[4Pal]SK[4Pal]LD[Aib]RRAQDFVQWLMNT
% bioactivity of GCG [1]: 24% | EC50 [nM] (SDV), luciferase-based glucagon receptor cAMP reporter assay [1]: 0.0843 nM

B2: Glucagon analog 5 (peptide)
peptide: HSQGTFTSDYSK[3Pal]LD[Aib]RRAQDFVQWLMNT
% bioactivity of GCG [1]: 54% | EC50 [nM] (SDV), luciferase-based glucagon receptor cAMP reporter assay [1]: 0.0379 nM

B3: Glucagon analog 4 (peptide)
peptide: HSQGTFTSD[3Pal]SKYLD[Aib]RRAQDFVQWLMNT
% bioactivity of GCG [1]: 76% | EC50 [nM] (SDV), luciferase-based glucagon receptor cAMP reporter assay [1]: 0.0268 nM

B4: Glucagon analog 7 (peptide)
peptide: HSQGTFTSD[3Pal]SK[3Pal]LD[Aib]RRAQDFVQWLMNT
% bioactivity of GCG [1]: 57% | EC50 [nM] (SDV), luciferase-based glucagon receptor cAMP reporter assay [1]: 0.0359 nM

B5: Glucagon analog 8 (peptide)
peptide: HSQGTFTSD[4Pal]SK[4Pal]LD[Aib]RRAQDFVQWLMNT
% bioactivity of GCG [1]: 66% | EC50 [nM] (SDV), luciferase-based glucagon receptor cAMP reporter assay [1]: 0.0309 nM

B6: Glucagon analog 9 (peptide)
peptide: HSQGT[3Pal]TSD[3Pal]SK[3Pal]LD[Aib]RRAQDFVQWLMNT
% bioactivity of GCG [1]: 28% | EC50 [nM] (SDV), luciferase-based glucagon receptor cAMP reporter assay [1]: 0.0714 nM

B7: Glucagon analog Aib16, q20, D28 (SEQ ID NO: 980) (peptide)
peptide: HSQGTFTSDYSKYLD[Aib]RRA[dQ]DFVQWLMDT
hGcgR EC50 (pM) (human glucagon receptor): 33 pM | hGLP-1R EC50 (pM) (human GLP-1 receptor): 7480 pM

B8: Glucagon analog 6 (peptide)
peptide: HSQGTFTSDYSK[4Pal]LD[Aib]RRAQDFVQWLMNT
% bioactivity of GCG [1]: 60% | EC50 [nM] (SDV), luciferase-based glucagon receptor cAMP reporter assay [1]: 0.0339 nM

B9: Glucagon analog 3-Pal10, Aib16, q20 (SEQ ID NO: 971) (peptide)
peptide: HSQGTFTSDXSKYLDXRRAXDFVQWLMNT
modifications: 3-Pal at position 10; Aib at position 16; dGln at position 20
hGcgR EC50 (pM) (human glucagon receptor): 86 pM | hGLP-1R EC50 (pM) (human GLP-1 receptor): > 10000 pM

B10: Glucagon analog 11 (peptide)
peptide: HSQGT[3Pal]TSD[3Pal]SK[3Pal]LD[Aib]RRAQD[3Pal]VQWLMNT
% bioactivity of GCG [1]: 1% | EC50 [nM] (SDV), luciferase-based glucagon receptor cAMP reporter assay [1]: 2.33 nM

B11: Glucagon analog Aib16, q20, D28, E29 (SEQ ID NO: 981) (peptide)
peptide: HSQGTFTSDYSKYLD[Aib]RRA[dQ]DFVQWLMDE
hGcgR EC50 (pM) (human glucagon receptor): 18 pM | hGLP-1R EC50 (pM) (human GLP-1 receptor): > 10000 pM
